Data reported in patent publication US20190338038A1 (CELLERANT THERAPEUTICS, published 2019).
Blank lines part the entries; values can stand above or below the binder they belong to.

Assays:
[1] = target: T1, human interleukin 1 receptor accessory protein, membrane-bound form on cells (human, UniProt Q9NPH3 21-570); assay: FACS titration on EOL-1 cells
T1 construct: On IL1-RAP-transfected 293 cells, AML cell lines (EOL-1, HNT-34, OCI-AML2, OCI-AML3), primary AML cells and HEK-Blue IL-1β cells; also called IL1-RAP; receptor IL1-RAP
T1 sequence: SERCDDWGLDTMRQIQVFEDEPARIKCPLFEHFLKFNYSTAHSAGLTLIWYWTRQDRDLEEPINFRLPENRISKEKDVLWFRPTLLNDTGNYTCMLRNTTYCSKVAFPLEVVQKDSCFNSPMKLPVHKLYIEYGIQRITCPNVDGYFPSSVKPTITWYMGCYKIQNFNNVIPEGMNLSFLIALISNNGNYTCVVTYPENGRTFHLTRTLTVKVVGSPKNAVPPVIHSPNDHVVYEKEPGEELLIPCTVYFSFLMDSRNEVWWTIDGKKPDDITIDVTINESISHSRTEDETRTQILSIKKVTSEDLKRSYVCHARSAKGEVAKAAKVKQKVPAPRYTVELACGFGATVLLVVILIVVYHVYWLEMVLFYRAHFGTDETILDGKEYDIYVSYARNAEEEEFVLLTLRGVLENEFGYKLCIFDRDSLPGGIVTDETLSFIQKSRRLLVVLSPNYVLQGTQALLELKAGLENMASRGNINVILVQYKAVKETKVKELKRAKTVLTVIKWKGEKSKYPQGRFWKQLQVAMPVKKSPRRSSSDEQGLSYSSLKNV

[2] = target: T2, IL1-RAP (antigen of the kinetic measurements of Tables 5A and 5B) (human, UniProt Q9NPH3 21-359, limits assumed); assay: kinetics, Table 5A; method and antigen form not stated
T2 sequence: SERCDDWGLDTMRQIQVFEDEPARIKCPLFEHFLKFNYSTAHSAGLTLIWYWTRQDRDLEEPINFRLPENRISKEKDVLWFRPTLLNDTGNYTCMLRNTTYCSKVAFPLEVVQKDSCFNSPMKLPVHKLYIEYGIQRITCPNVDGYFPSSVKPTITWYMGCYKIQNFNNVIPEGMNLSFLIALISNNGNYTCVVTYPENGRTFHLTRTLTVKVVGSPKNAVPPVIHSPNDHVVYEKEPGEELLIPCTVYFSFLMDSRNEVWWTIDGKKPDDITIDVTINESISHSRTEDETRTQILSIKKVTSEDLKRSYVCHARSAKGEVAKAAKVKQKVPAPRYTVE

[3] = target: T2, IL1-RAP (antigen of the kinetic …); assay: kinetics, Table 5B; method and antigen form not stated
[4] = target: T2, IL1-RAP (antigen of the kinetic …); assay: kinetics, Table 5A; method and antigen form not stated; Table 5A
[5] = target: T2, IL1-RAP (antigen of the kinetic …); assay: kinetics, Table 5B; method and antigen form not stated; Table 5B
[6] = target: T1, human interleukin 1 receptor accessory …; assay: FACS on EOL-1 cells, FITC; antibody concentration not given
[7] = target: T1, human interleukin 1 receptor accessory …; assay: FACS titration on EOL-1 cells; remark: listed apart in the source
[8] = target: T1, human interleukin 1 receptor accessory …; assay: FACS titration on HNT-34 cells
[9] = target: T1, human interleukin 1 receptor accessory …; assay: FACS titration on IL1-RAP transfected 293 cells
[10] = target: T3, soluble IL1-RAP form (isoform 2) (human, UniProt Q9NPH3 21-350); assay: sandwich ELISA: plate coated with goat anti-IL1RAP antibody, then soluble IL1-RAP, then 2H8
T3 construct: Expressed in and purified from 293 cells; also called Q9NPH3-2; soluble form IL1RAP
T3 sequence: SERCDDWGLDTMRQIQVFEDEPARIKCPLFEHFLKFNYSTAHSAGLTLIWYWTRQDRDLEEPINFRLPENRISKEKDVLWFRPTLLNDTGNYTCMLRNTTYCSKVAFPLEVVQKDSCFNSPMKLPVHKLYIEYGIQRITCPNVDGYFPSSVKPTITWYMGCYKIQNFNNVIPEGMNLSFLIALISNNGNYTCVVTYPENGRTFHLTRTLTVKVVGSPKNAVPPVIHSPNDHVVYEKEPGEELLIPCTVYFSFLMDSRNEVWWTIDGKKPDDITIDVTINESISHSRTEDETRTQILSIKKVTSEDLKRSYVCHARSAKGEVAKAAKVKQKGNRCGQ
Description: (§1) The extracellular domain of IL1-RAP (Q9NPH3-4) and soluble IL1-RAP form (Q9NPH3-2) were expressed and purified from 293 cells. Sandwich ELISA was performed. The binding data shown in FIGS. 3A and 3B supports the conclusion that clone 2H8 binds to membrane-bound IL1-RAP better compared to soluble IL1-RAP form.

[11] = target: T4, his-tagged extracellular domain (ECD) of IL1-RAP (human, UniProt Q9NPH3 21-367); assay: sandwich ELISA: plate coated with goat anti-IL1RAP antibody, then extracellular domain of IL1-RAP, then 2H8
T4 construct: also called ECD IL1-RAP; IL1-RAP-His fusion protein
T4 sequence: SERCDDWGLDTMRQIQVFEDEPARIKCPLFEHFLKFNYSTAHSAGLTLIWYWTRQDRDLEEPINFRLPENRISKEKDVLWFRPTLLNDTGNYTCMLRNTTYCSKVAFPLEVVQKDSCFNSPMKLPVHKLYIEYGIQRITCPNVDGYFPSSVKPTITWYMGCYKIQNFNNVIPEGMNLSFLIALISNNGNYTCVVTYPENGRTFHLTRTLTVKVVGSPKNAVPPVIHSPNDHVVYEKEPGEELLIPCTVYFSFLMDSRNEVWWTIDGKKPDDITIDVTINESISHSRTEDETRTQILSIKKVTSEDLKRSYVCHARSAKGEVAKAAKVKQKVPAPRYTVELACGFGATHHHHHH
Description: as §1

- EC50 (read off the curve) [1]: ~200 nM
- koff [2]: < 1e-07 s⁻¹
- kon [2]: 143000 M⁻¹ s⁻¹
- koff [3]: < 1e-07 s⁻¹
- kon [3]: 158000 M⁻¹ s⁻¹
- Kd [4]: < 0.001 nM
- Kd [5]: < 0.001 nM
- MFI [6]: 32.2
B1: chimeric 54.9D7 (antibody, V domains shown)
VH: HVQLQQSGPELVRPGASVKLSCKASGYIFITYWMNWVKQRPGQGLEWVGQIFPASGTTYYNELFEGKATLTVDTSSNTAYMHLTSLTSEDSAVYYCARTDFYRYDGGYALDYWGQGTSLTVSS
VL: DIVLTQSPISLAVFLGQRATISCRASQSVSTSGYSSMHWYQQKAGQPPKLLIKYASDLESGVPVRFSGSGSGTDFILNIHPVEVEDIATYYCHHSWGIPMYTFGGGTKLEIKR
notes: Chimeric antibody; also called Chi54.9D7

- EC50 (read off the curve) [7]: ~1 µg/mL
- EC50 (read off the curve) [8]: ~0.5 µg/mL
- EC50 (read off the curve) [9]: ~0.9 µg/mL
- EC50 (read off the curve) [10]: ~1 µg/mL
- EC50 (read off the curve) [11]: ~0.6 µg/mL
B2: anti-IL1-RAP antibody clone 2H8 (antibody, V domains shown)
VH: QIQLVQSGPELKKPGETVKISCKASGYTFTDYSMHWVKQAPGKGLKWMGWINTETGEPTYADDFKGRFAFSLETSASTAYLQINNLKNEDTATYFCARYYGYFDYWGQGTTLTVSS
VL: DIVLTQSPASLAVSLGQRATISCRASESVDSYGNSFMHWYQQKPGQPPKLLIYRASNLESGIPARFSGSGSRTDFTLTINPVEADDVATYYCQQSNEDPWTFGGGTKLEIK
notes: Mouse monoclonal antibody; also called 2H8.3
